The values below come from patent US20130230562.

The data set addresses ApoHsp (cage protein formed by the fusion protein of Hsp, DEVD motif and histidine polymer, labelled with Cy5.5 and BHQ3).

B1: caspase-9 (NCBI accession no: NP-001220.2), human, purchased from R&D Systems (protein)
chain: MDEADRRLLRRCRLRLVEELQVDQLWDALLSRELFRPHMIEDIQRAGSGSRRDQARQLIIDLETRGSQALPLFISCLEDTGQDMLASFLRTNRQAAKLSKPTLENLTPVVLRPEIRKPEVLRPETPRPVDIGSGGFGDVGALESLRGNADLAYILSMEPCGHCLIINNVNFCRESGLRTRTGSNIDCEKLRRRFSSLHFMVEVKGDLTAKKMVLALLELAQQDHGALDCCVVVILSHGCQASHLQFPGAVYGTDGCPVSVEKIVNIFNGTSCPSLGGKPKLFFIQACGGEQKDHGFEVASTSPEDESPGSNPEPDATPFQEGLRTFDQLDAISSLPTPSDIFVSYSTFPGFVSWRDPKSGSWYVETLDDIFEQWAHSEDLQSLLLRVANAVSVKGIYKQMPGCFNFLRKKLFFKTS
On to B1, for which the “fluorescence signal (Cy5.5 dequenching after cleavage, 96-well plate, 37 C, 2 hours)” value is given as “fluorescence did not occur in reactions with another two capases at all”.

B2: caspase-8 (NCBI accession no: NP-001073593.1), human, purchased from R&D Systems (protein)
chain: SESQTLDKVYQMKSKPRGYCLIINNHNFAKAREKVPKLHSIRDRNGTHLDAGALTTTFEELHFEIKPHDDCTVEQIYEILKIYQLMDHSNMDCFICCILSHGDKGIIYGTDGQEAPIYELTSQFTGLKCPSLAGKPKVFFIQACQGDNYQKGIPVETDSEEQPYLEMDLSSPQTRYIPDEADFLLGMATVNNCVSYRNPAEGTWYIQSLCQSLRERCPRGDDILTILTEVNYEVSNKDDKKNMGKQMPQPTFTLRKKLVFPSD
In the case of B2, the “fluorescence signal (Cy5.5 dequenching after cleavage, 96-well plate, 37 C, 2 hours)” value is listed as “fluorescence did not occur in reactions with another two capases at all”.
